Data as given in patent publication US20200197483A1 (MOREHOUSE SCHOOL OF MEDICINE, published 2020).

Assays:
[1] = target: T1, Mortalin (UniProt P38646 47-679); experiment: immunoprecipitation from Jurkat lysate, Western blot with anti-mortalin antibody
T1 construct: Endogenous protein pulled down from Jurkat cell lysate (a human T cell line); also called Glucose-regulated protein 75 (GRP75)

[2] = target: T2, E. coli DnaK protein (Escherichia coli, UniProt P0A6Y8 2-638); experiment: ANTI-FLAG M2 immunoprecipitation from E. coli lysate, Western blot with anti-DnaK antibody
T2 construct: Endogenous protein in E. coli lysate; also called heat shock protein 70 (Hsp70)
T2 sequence (P0A6Y8 2-638 limits assumed): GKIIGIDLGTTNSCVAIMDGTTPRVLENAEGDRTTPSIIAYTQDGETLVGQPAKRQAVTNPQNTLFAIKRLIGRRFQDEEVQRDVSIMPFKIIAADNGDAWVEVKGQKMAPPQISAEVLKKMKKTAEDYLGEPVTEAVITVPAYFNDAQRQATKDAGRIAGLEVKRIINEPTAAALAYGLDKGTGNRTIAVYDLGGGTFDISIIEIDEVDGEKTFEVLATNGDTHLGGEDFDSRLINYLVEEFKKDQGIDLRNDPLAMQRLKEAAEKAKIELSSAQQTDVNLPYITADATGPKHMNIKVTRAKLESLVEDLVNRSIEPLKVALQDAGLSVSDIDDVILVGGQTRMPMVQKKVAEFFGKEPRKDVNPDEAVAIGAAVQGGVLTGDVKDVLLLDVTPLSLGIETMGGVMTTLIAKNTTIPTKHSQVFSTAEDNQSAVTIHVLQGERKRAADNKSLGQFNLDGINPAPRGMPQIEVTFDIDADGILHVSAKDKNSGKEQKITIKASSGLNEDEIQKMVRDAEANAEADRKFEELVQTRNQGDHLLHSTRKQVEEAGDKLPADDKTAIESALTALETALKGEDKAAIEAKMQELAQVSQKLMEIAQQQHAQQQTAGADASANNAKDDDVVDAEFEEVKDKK

T1 sequence (P38646 47-679 limits assumed): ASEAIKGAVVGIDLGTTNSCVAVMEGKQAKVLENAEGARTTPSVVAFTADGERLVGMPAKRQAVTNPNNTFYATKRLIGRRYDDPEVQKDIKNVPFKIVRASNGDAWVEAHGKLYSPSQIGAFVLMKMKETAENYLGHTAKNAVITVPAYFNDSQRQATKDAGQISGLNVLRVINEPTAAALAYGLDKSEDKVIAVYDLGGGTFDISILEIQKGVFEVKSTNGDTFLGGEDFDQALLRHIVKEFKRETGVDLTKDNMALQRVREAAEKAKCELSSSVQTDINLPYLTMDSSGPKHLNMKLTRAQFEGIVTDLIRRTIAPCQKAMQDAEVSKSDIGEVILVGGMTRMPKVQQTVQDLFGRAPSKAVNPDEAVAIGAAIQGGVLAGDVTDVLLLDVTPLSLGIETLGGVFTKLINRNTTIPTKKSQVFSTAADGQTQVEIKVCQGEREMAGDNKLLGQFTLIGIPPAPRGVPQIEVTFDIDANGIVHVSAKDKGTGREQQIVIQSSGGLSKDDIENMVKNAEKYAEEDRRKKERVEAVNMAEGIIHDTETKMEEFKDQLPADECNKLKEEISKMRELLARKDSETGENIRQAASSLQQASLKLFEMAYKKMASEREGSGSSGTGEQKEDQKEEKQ

Binder | binding result [1] | binding result [2]
VGFPVAAVGFPVDYKDDDDK (Synthetic peptide with two SMR motifs and a C-terminal FLAG tag; also called SMRwt (wide-type) peptide; antagonist peptide) [HIV-1 Nef SMRwt peptide] | binds | binds
AGFPVAAAGFPVDYKDDDDK (Synthetic negative control peptide; the first valine of each VGFPV motif is changed to alanine; also called SMRmut (mutant) peptide; negative control peptide) [HIV-1 Nef SMRmut peptide] | no binding | no binding (tested: 1 µg peptide with 1 mg E. coli lysate)
